Reference: US20100015126A1, “Methods of Binding of Cross-Beta Structures By Chaperones” (priority 2006, published 2010)

Tests used:
[1] = biological target: T1, BiP-Sepharose (Homo sapiens, UniProt P11021); assay: BiP-Sepharose extraction of proteins from patient plasma, serum, synovial fluid and mass-spectrometric identification; type: binding; settings: Sample B6: eluate of BiP-Sepharose contacted with RA patient IV synovial fluid
T1 construct: The human BiP gene except the signal peptide encoding region was obtained from Geneart (Germany); linker […]; made in house; host or cells: HEK 293E cells, transient transfection, PABC674 vector; secreted into the medium
Method: BiP was coated on CNBr-Sepharose (GE-Healthcare, Amersham Biosciences). Immobilization of BiP was performed essentially as described elsewhere in this application for NHS-Sepharose. CNBr-matrix was dissolved at 200 mg/ml in 1 mM HCl and treated the same as the NHS-matrix, except for an additional 5 minutes activation step in 1 mM HCl on a roller device before washing in this buffer. BiP was diluted in immobilization buffer (50 mM NaCl and 40 mM NaHCO3) to a concentration of 820 μg/ml. A total volume of 2 ml BiP solution (1640 μg BiP) was incubated with 360 mg beads. Negative control matrix was exposed to immobilization buffer, only. After overnight immobilization matrix was blocked with Tris and washed.
Six samples were incubated with the BiP-Sepharose, IgIV-Sepharose and the control-Sepharose: Normal pooled plasma, plasma of a patient I or of a patient II, with AL amyloidosis, serum of a patient III with RA (Rheumatoid Factor (RF) titer 682), control serum and synovial fluid of a patient IV with RA (RF titer 23). All samples were diluted 20× in HBS and applied to 200 μl beads in two volumes of 500 μl. One volume was incubated for 4 h at RT and supernatant was discarded after centrifugation (2 minutes at 1400 rpm). Subsequently, the second volume was applied to the same matrix and incubated overnight on a roller device at 4° C. […] To collect the eluates, the matrices were centrifuged and the two eluates were pooled for each sample.
Protein digests were desalted as described (Rappsilber et al., 2003), vacuum dried and dissolved in 2.5% formic acid.
For analysis of peptide mixtures, an Agilent 1100 HPLC system (Agilent Technologies) connected to a Thermo Finnigan LTQ-MS (Thermo Electron, Bremen, Germany) was used. Protein digests were injected on a trap column (Reprosil C18 RP (Dr Maisch, Germany), 20 mm×100 μm I.D.) at 5 μl/minute. Subsequently, the peptides were transferred with a split-reduced flow rate of 100 nL/minute solvent A (0.1 M acetic acid) on the analytical column (Reprosil C18 RP, 20 cm×50 μm I.D.). […] The column effluent was directly introduced into the ESI source of the mass spectrometer via a butt-connected nano-ESI emitter (New Objectives, Woburn, Mass.). The mass spectrometer was operated in the positive ion mode and parent ions were selected for fragmentation in data-dependent mode.
After mass spectrometric measurements, peak lists were generated using BioWorks software (Thermo Electron, Bremen, Germany). Protein identification was performed using Mascot software (www.matrixscience.com) by searching the IPIhuman database (version 3.24, downloaded from ftp://ftp.ebi.ac.uk/pub/databases/IPI/current) using the following settings: fully tryptic peptides, peptide tolerance 0.8 Da, MS/MS tolerance 0.9 Da, 1 missed cleavage allowed, carbamidomethyl (Cys) and oxidation (Met) as fixed and variable modification, respectively. The Scaffold software package (www.proteomesoftware.com) was used to parse the data and to filter peptides at a confidence level of 95%, allowing only protein identification with at least 2 peptides identified.

[2] = biological target: T2, human BiP (Homo sapiens, UniProt P11021); assay: ELISA: binding of BiP-FLAG-His to immobilized (misfolded) protein ligands; settings: ligands coated at 5 μg/ml; 6BB peptides and oxLDL 50 μg/ml
T2 construct: The human BiP gene except the signal peptide encoding region was obtained from Geneart (Germany); linker […]; made in house; host or cells: HEK 293E cells, transient transfection, PABC674 vector; secreted into the medium
Method: Enzyme Linked Immunosorbent Assay for Testing of Chaperone Binding to Misfolded Proteins
Binding of chaperones to immobilized (misfolded) protein ligands was determined using an enzyme linked immuno sorbent assay (ELISA) approach. For this purpose 50 μl/well of potential ligands at indicated concentrations or coat buffer only for control and background measurement purposes, were coated overnight at 4° C. or coated for 1 h at room temperature, with motion, in 50 mM NaHCO3 pH 9.6 (coat buffer). In general, ligands were coated at 5 μg/ml, unless stated otherwise. For example, BiP binding peptides 6BB# and oxLDL were coated at 50 μg/ml. Native haemoglobin (Sigma-Aldrich, H7379), albumin, IgIV Gammagard and ovalbumin controls were prepared from lyophilized stocks. The controls were prepared by dissolving lyophilized proteins at 1 mg/ml in PBS upon resuspending by pipetting, followed by a 30 minutes period at the roller device, at room temperature. The protein solutions were centrifuged for 10 minutes at 16,000*g and diluted in coat buffer. […] After 5 washes with wash buffer followed by two washes with PBS, binding of antibodies was assessed. […] Plates were read at 450 nm. Triplicates were averaged and standard deviations calculated. […] Subsequently, sub-optimal concentrations of chaperones for binding to misfolded protein ligands are determined, and these concentrations are used for inhibition studies. […]

[3] = biological target: T3, human mitochondrial HSP60 (Homo sapiens, UniProt P10809); assay: ELISA: binding of HSP60 to immobilized (misfolded) protein ligands
T3 construct: Dr. W. van Eden, Utrecht University; host or cells: E. coli
Method: Recombinant human HSP60 with N-terminal His-tag was a kind gift of Dr. R. van der Zee and Prof. Dr. W. van Eden (Institute of Infectious Diseases and Immunology, Faculty of Veterinary Medicine, Utrecht University, Utrecht, The Netherlands), and was supplied in lyophilized form. The HSP60 was produced in E. coli and purified using Nickel-Sepharose. The HSP60 was lyophilized from 20-40 mM ammonium-bicarbonate solution, after purification, and stored at −20° C. The construct lacks the mitochondrial signal sequence. […] Before use, the lyophilized protein is dissolved at room temperature at 1 mg/ml in 20-40 mM NH4HCO3, resulting in a pH of 7.0. Aliquots are stored at −20° C. or −80° C. The mitochondrial HSP60 is a functional dimer of heptamers (MW(HSP60 monomer)=˜58 kDa), and is involved in multimer protein assembling and aids in transport of unfolded proteins across membranes. For the binding studies, at two occasions separate HSP60 solutions were prepared originating from the same batch of purified protein, lyophilized in separate Eppendorf cups.
Binding of chaperones to immobilized (misfolded) protein ligands was determined using an enzyme linked immuno sorbent assay (ELISA) approach. […] After 5 washes with wash buffer followed by two washes with PBS, binding of antibodies was assessed. […] Plates were read at 450 nm. […]

T3 sequence (P10809 27-573): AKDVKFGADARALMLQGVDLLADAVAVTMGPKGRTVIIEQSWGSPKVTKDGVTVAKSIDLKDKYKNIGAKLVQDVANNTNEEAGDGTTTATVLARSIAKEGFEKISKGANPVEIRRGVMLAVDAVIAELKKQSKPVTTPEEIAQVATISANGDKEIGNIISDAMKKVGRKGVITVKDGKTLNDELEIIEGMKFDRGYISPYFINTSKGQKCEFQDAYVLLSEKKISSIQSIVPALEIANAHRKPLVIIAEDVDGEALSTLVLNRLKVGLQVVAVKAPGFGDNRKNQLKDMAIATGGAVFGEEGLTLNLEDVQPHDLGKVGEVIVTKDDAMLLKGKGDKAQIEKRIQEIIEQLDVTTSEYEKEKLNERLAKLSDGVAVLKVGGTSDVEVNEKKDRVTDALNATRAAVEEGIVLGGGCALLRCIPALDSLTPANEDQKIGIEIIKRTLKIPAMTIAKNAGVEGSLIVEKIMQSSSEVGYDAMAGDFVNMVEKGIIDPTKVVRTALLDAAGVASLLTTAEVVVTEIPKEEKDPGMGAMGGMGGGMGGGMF
T1 sequence (P11021 19-654): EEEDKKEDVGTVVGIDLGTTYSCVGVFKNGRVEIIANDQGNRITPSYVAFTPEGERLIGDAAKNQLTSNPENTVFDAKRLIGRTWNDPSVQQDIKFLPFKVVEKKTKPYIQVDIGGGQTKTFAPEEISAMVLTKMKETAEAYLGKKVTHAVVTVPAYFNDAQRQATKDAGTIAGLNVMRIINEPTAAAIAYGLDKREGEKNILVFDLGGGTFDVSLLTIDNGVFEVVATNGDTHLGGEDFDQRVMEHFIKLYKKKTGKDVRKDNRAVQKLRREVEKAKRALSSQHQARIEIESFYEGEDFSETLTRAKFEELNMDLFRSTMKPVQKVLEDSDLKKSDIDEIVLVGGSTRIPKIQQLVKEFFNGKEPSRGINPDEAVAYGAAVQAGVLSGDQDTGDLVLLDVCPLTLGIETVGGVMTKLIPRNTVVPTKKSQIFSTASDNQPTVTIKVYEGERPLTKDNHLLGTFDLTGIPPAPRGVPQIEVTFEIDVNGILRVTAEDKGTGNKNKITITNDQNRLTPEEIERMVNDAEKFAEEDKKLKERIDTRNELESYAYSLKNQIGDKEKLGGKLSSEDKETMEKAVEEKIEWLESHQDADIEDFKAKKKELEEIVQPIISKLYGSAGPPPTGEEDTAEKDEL
T2 sequence (P11021 19-654): as above

Row | # of peptides in sample A# [1] | Binding of concentration series of BiP to coated ligand [2] | Binding of concentration series of HSP60 to coated ligand [3] | Molecule
1 | 1 |  |  | Immunoglobulin heavy constant mu (protein) GSASAPTLFPLVSCENSPSDTSSVAVGCLAQDFLPDSITFSWKYKNNSDISSTRGFPSVLRGGKYAATSQVLLPSKDVMQGTDEHVVCKVQHPNGNKEKNVPLPVIAELPPKVSVFVPPRDGFFGNPRKSKLICQATGFSPRQIQVSWLREGKQVGSGVTTDQVQAEAKESGPTTYKVTSTLTIKESDWLGQSMFTCRVDHRGLTFQQNASSMCVPDQDTAIRVFAIPPSFASIFLTKSTKLTCLVTDLTTYDSVTISWTRQNGEAVKTHTNISESHPNATFSAVGEASICEDDWNSGERFTCTVTHTDLPSPLKQTISRPKGVALHRPDVYLLPPAREQLNLRESATITCLVTGFSPADVFVQWMQRGQPLSPEKYVTSAPMPEPQAPGRYFAHSILTVSEEEWNTGETYTCVVAHEALPNRVTERTVDKSTGKPTLYNVSLVMSDTAGTCY
2 |  | did not bind | did not bind | ovalbumin: native chicken ovalbumin control (protein) GSIGAASMEFCFDVFKELKVHHANENIFYCPIAIMSALAMVYLGAKDSTRTQINKVVRFDKLPGFGDSIEAQCGTSVNVHSSLRDILNQITKPNDVYSFSLASRLYAEERYPILPEYLQCVKELYRGGLEPINFQTAADQARELINSWVESQTNGIIRNVLQPSSVDSQTAMVLVNAIVFKGLWEKAFKDEDTQAMPFRVTEQESKPVQMMYQIGLFRVASMASEKMKILELPFASGTMSMLVLLPDEVSGLEQLESIINFEKLTEWTSSNVMEERKIKVYLPRMKMEEKYNLTSVLMAMGITDVFSSSANLSGISSAESLKISQAVHAAHAEINEAGREVVGSAEAGVDAASVSEEFRADHPFLFCIKHIATNAVLFFGRCVSP
